This is an account of results in patent publication US20140271701A1.

The test addresses serum antibodies (IgG) of Sardinian T1D patients, Example 1 (n=34; Ab+ sera) (human). Kind of test: competition ELISA on MAP3865c125-133-coated plates, sera pre-adsorbed with saturating peptide.

B1: MAP3865c125-133 peptide (…) (peptide)
peptide: MIAVALAGL
As to B1, the percent inhibition is 57 to 89%.
